Non-standard residues stand in square brackets, D forms with d. No end group written: not given here.
Tests used:
[1] = biological target: PBX proteins of human cancer cell lines (A549, LNCaP, SK-OV3, A498, J82) (human (human cell lines)); test: cell-based or functional assay
[2] = biological target: T1, PBX proteins of murine B16 melanoma cells (mouse (murine B16 melanoma cells), UniProt P41778 1-430, limits assumed); test: cell-based or functional assay
T1 sequence (looked up): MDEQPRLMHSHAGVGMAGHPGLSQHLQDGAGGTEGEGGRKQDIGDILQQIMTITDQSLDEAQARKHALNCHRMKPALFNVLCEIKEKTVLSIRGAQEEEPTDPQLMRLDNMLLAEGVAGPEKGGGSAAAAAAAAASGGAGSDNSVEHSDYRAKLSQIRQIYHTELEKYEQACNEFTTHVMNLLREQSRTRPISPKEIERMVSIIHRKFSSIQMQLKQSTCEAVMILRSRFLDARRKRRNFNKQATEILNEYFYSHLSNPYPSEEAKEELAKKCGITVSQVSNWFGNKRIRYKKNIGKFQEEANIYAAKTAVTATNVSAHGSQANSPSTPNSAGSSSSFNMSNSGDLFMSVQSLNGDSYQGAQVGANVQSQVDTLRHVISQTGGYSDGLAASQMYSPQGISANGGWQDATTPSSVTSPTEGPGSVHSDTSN

IC50 (µM), MTT assay, A498 [1]: 24 µM
IC50 (µM), MTT assay, A549 [1]: 19 µM
IC50 (µM), MTT assay, J82 [1]: 22 µM
IC50 (µM), MTT assay, LNCaP [1]: 21 µM
IC50 (µM), MTT assay, SK-OV3 [1]: 22 µM
IC50 (µM), MTT assay, B16F10 [2]: 20 µM
Binder: [dW]YPWMKKHHRRRRRRRR[dR] [HXArg9(2D)]

From patent publication US20090286738A1 (ST GEORGE S ENTERPRISES, published 2009)
